Reference: patent publication US20230088269A1 (ARGENX BVBA, published 2023)
Positions count from the first letter of the chain named. Each block holds one binder with its values, some of them ahead of it.

Columns and labels:
[1] = target: T1, recombinant human IL-22R (R&D Systems / Biotechne 2770-LR) (human, UniProt Q8N6P7 16-228); experiment: SPR (Biacore 3000), IL22R on CM5 chip, IgG1 injected
T1 construct: Bought soluble recombinant protein (said to be 25 kDa); also called hIL22R; IL-22R1
T1 sequence: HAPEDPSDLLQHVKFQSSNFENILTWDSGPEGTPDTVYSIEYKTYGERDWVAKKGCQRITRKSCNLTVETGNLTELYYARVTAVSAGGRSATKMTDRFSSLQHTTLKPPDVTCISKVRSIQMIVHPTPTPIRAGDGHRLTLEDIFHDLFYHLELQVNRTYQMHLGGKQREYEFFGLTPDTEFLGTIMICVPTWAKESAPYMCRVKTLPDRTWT
Procedure: In addition to the potency on cells, the in vitro binding kinetics and blocking activity of the purified antibodies were measured in Biacore (3000). […] Antibodies tested at a range of concentrations and prepared in HBSEP buffer at pH 7.4 (Biacore) were injected at 30 μl/min for 60 second and washed with HBSEP buffer at pH 7.4 (Biacore) for 10-20 min. The obtained sensograms were analyzed with the BIAevaluation software and kinetics were determined using standard fitting (Langmuir 1:1 with mass transfer).

[2] = target: T2, human IL-22R expressed on cells (BW-hIL22R, Baf3-hIL22R/IL20Rb, transfected HEK, primary human skin cells) (human, UniProt Q8N6P7 16-574); experiment: cell-based or functional assay
T2 sequence: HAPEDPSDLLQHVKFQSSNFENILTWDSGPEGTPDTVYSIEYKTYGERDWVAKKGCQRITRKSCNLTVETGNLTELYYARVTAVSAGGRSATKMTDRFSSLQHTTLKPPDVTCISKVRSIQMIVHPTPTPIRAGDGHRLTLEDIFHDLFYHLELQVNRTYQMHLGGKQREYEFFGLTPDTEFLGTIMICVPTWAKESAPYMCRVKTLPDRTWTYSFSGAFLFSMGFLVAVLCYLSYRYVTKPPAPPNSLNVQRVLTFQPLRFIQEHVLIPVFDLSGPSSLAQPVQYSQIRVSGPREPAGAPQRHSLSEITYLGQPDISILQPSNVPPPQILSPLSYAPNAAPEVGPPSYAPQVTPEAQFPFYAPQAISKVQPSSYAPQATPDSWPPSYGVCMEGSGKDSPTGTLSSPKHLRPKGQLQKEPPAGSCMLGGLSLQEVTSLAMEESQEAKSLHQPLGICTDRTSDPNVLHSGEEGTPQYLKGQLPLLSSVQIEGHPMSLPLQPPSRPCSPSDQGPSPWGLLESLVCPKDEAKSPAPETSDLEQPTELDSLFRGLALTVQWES

[3] = target: T2, human IL-22R expressed on cells …; experiment: cell-based or functional assay; remark: listed apart in the source
[4] = target: T1, recombinant human IL-22R (R&D Systems / …); experiment: SPR (Biacore), hIL22R on CM5 chip, mAb injected, 1:1 Langmuir
Procedure: The affinity of the 230C9 and 223G5 antibodies was measured using SPR ([…]). In brief, 250RU of human IL22R (Biotechne, 2770-LR) was coated onto a CM5 chip using standard methods (EDC coupling of IL22R at a concentration of 2 μg/ml in acetate buffer pH4.5). Then various concentrations of antibody were injected in HBSEP+ buffer (pH 7.4) for 2 minutes. The binding was monitored also during a 10 min washing (HBSEP+).

[5] = target: rhesus IL22R ECD - human TM - human ICD chimera on transfected HEK cells (rhesus monkey; human, UniProt Q8N6P7 229-574); experiment: cell-based or functional assay
[6] = target: cynoIL22R_ECD-humanTM_humanICD chimera on transfected cells (cynomolgus monkey; human, UniProt Q8N6P7 229-574); experiment: cell-based or functional assay
[7] = target: T2, human IL-22R expressed on cells …; experiment: cell-based or functional assay; remark: listed apart in the source
[8] = target: T3, recombinant mouse IL22R (monomeric, R&D Systems cat 4248-MR) (mouse, UniProt Q80XZ4 16-230); experiment: SPR (Biacore), purified Fab
T3 construct: extracellular domain; also called murine IL-22R; mIL22R
T3 sequence (looked up): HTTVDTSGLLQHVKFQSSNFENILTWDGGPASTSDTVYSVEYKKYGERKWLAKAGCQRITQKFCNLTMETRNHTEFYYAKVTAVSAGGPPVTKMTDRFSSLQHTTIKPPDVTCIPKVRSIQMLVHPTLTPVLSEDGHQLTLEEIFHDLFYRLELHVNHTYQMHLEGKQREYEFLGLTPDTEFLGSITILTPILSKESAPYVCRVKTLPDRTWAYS

[9] = target: T1, recombinant human IL-22R (R&D Systems / …); experiment: SPR (Biacore), purified Fab
[10] = target: T1, recombinant human IL-22R (R&D Systems / …); experiment: off-rate of Fab fragment; method not stated
[11] = target: T4, rhIL22R-Fc (rhesus IL22R ECD fused to human Fc) (rhesus monkey, UniProt G7MHN4 16-228); experiment: off-rate of Fab fragment; method not stated
T4 construct: also called rhesus IL-22R1
T4 sequence: T1 sequence with S18N, L73H, S99N, T105A, S115P, K167E, A194S, E196K, K205R

[12] = target: T3, recombinant mouse IL22R (monomeric, R&D …); experiment: ELISA and SPR (Biacore), mAb
Procedure: After production and purification of the cyIL22R-Fc and the rhIL22R-Fc, the binding specificity to cynomolgus, rhesus and mouse IL22R ECD of all the antibodies from primary selection was tested in ELISA and by SPR (Biacore). Monomeric mouse IL22R was purchased from R&D Systems (cat 4248-MR).

B1: 170B2 mAb (antibody, V domains shown)
VH: EVQLVESGGGLVQPGGSLRLSCAASGFTFSSSWMYWVRQAPGKGLEFVSVINTRSGITHYVESVKGRFTISTDNAKNTLFLQMNSLKSEDTAVYYCATRIQGLIDYWGQGTQVTVSS
VL: DIVMTQSPSSLSVSLGDRVTITCQASQSIGSVNALAWYQQKPGQSLKLLIHGASRLQTGVPSRFSGSGSGTSFTLAISGVEAEDLATYYCLQDYAWPLTFGQGTKVELK
- Kd [1]: 0.12 nM
- koff [1]: 9.3e-05 s⁻¹
- kon [1]: 760000 M⁻¹ s⁻¹

B3: 157A2 Fab (Fab, V domains shown)
VH: QVQLVESGGGLVQPGGSLRLSCAASGFTFSSYDMSWVRQAPGKGLEWVSSIYNDGSNTAYSDSVKGRFTISRDNAKNTLYLQMNSLKSEDTAVYYCAKVGFSGTYYSESWGQGTQVTVSS
VL: NFMLTQPSAVSVSLGQTAKITCQGGYYAHWYQQKPGQAPVLVIYGNNNRPSGIPERFSGSSSGNTATLTISGAQAEDEAEYYCQSGSSSANAVFGGGTHLTVL
notes: VH family 4; purified llama Fab
- binding result [8]: no binding
- koff [9]: 0.0037 s⁻¹

B5: 218A7 Fab (Fab, V domains shown)
VH: B3 VH
VL: B3 VL with N1L, F2P, M3V, K19R, N46Q, S61G, S62A, H99K
notes: Light chain shuffled variant of 157A2
- koff [10]: 0.00081 s⁻¹
- koff [11]: 0.00097 s⁻¹

B6: 157A2 mAb (antibody, IgG1, V domains shown)
VH: B3 VH
VL: B3 VL
notes: VH family 4; produced as IgG1 with human constant domains
- Kd [1]: 2.8 nM
- koff [1]: 0.0011 s⁻¹
- kon [1]: 390000 M⁻¹ s⁻¹
- binding result [12]: no binding

B8: 166G8 mAb (antibody, IgG1, V domains shown)
VH: QVQLVESGGGLVQPGDSLRLSCAASGFTFGSYFMSWVRQAPGKGPEWVSGIHISGGITYYLDSVKGRFTISRDNAKNTLYLQMNNLKPEDTAVYYCVTPPGPFKAHYNGMKYWGKGTLVTVSS
VL: NFMLTQPPSVSGTLGKTVTISCTGTSRDIGDYNYVSWYQQLPGLAPKLLIYKVNTRSSGTPDRFSGSKSGNTASLTISGLQSEDEADYYCASYRLYADYVFGGGTHLTVL
notes: VH family 5; produced as IgG1 with human constant domains
- Kd [1]: 0.022 nM
- koff [1]: 0.0002 s⁻¹
- kon [1]: 9.2e+06 M⁻¹ s⁻¹
- binding result [12]: no binding

The next lines start with the values.

- IC50 blocking IL-20 (nM), Baf3hIL22R/IL20Rb cell line [2]: 1.49 nM
- IC50 blocking IL-22 (nM), BWhIL22R cell line [3]: 0.69 nM
- Relative potency to 280.346.TSY (IL-22, BWhIL22R cell line) [3]: 1 fold
- Kd [1]: 0.24 nM
- koff [1]: 6.4e-05 s⁻¹
- kon [1]: 270000 M⁻¹ s⁻¹
- Kd [4]: 0.69 nM
- koff [4]: 0.00034 s⁻¹
- kon [4]: 490000 M⁻¹ s⁻¹
- EC50 (nM), STAT3-reporter in HEK cells after human IL22, Rhesus ECD [5]: 0.43 nM
- EC50 (nM), STAT3-reporter in HEK cells after human IL22, Cyno ECD [6]: 0.16 nM
- EC50 (nM), STAT3-reporter in HEK cells after human IL22, Human ECD [7]: 0.26 nM
B2: 280.346.TSY (benchmark humanised IL-22R antibody of WO2011/061119) (antibody, V domains shown)
VH: EVQLVESGGGLVQPGGSLRLSCAASGYSITAEYMNWVRQAPGKGLEWIGEINPSTGTTTYNQKFKGRFTISVDQSKNTAYLQMNSLRAEDTAVYYCARFDAYFDYWGQGTLVTVSS
VL: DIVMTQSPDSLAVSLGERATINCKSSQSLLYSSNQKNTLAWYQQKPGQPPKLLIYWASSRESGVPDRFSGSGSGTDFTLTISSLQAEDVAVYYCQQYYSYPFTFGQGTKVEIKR

- koff [10]: 0.000352 s⁻¹
- koff [11]: 0.000436 s⁻¹
B4: 230C9 Fab (Fab, V domains shown)
VH: B3 VH with S35N, G55A, A75S, K87R, S88A, Q115L
VL: SYELTQPSSVSVALGQTARITCQGGYYAHWYQQKPGQAPVLVIYGQNNRPSGIPERFSGSGAGNTATLTISRAQAEDEADYYCQSGSSSSNAVFGGGTKLTVL
notes: Germlined variant of 218A7

- koff [10]: 0.000529 s⁻¹
- koff [11]: 0.00584 s⁻¹
B7: 223G5 Fab (Fab, V domains shown)
VH: B8 VH with D16G, G30S, L61T, N85S, K87R, P88A, M110A
VL: QSALTQPPSVSGSPGQSVTISCTGTSSDIGSYNYVSWYQQLPGKAPKLLIYEVNKRSSGVPDRFSGSKSGNTASLTISGLQAEDEADYYCASYRLYADYVFGGGTQLTVL
notes: Germlined variant of 166G8
